Data as given in US7201905B2, “Bi-functional cancer treatment agents” (Greenville Hospital System, priority 2001, dated 2007).

Columns and labels:
[1] = system: L-1210 tumor cells; details: inhibiting cell growth and differentiation, read-out: IC50, cytotoxic effects against L-1210 tumor cells; cited from earlier work
[2] = system: T-47D human breast cancer cells; assay: T-47D co-culture method with L cells (FIG. 3); format: cell-based; details: co-cultured with L-PRL or L-hPRL-G129R cells, dose-response
Description: The x-axis represents the co-cultured L cell (control, L-PRL or L-hPRL-G129R cell numbers. Each data point represents a mean of at least three independent experiments with triplicate wells.

[3] = system: STAT5 phosphorylation in T-47D human breast cancer cells; assay: STAT 5 phosphorylation/immunoprecipitation assay; format: cell-based; details: T-47D cells, 30 min incubation, anti-phosphotyrosine blot
Method: T-47D cells are grown in RPMI-1640 medium containing 10% Charcoal Stripped Fetal Bovine Serum (CSFBS; growth medium). For each experiment, cells are passed into 6 well culture plates in growth medium till reach 90% confluence. On the day of the experiment, cells are depleted in serum free media for one hour and incubated in hPRL, hPRL-G129R or combination of two for 30 min. After treatment, T47-D cells are washed once with ice cold PBS and collected by gentle scraping in 1 ml ice cold lysis buffer [20 mM Tris-Cl (pH 7.4), 100 mM NaCl, 2 mM EDTA, 1% NP-40, 1 mM phenylmethylsulfonyl fluoride, 10 ug/ml aprotinin, 10 ug/ml leupeptin]. The lysis mixture is then passed through a 22 gauge needle several times avoiding air bubbles and spin at maximum speed for 20 minutes. The supernatant is then transferred to a new microcentrifuge tube. Five μg of STAT5 monoclonal antibody is then added to 100 microliters (200–500 micrograms total protein) of cell lysate along with 400 microliters of ddH20 and 500 microliters of 2×IP buffer [1% Triton X-100, 150 mM NaCl, 10 mM Tris pH 7.4, 1 mM EDTA, 1 mM EGTA, 0.2 mM sodium vanadate, 0.2 mM PMSF, 0.5% NP-40] to each reaction. After overnight incubation at 4° C. and gentle rotation, 50 microliters of prewashed (1×IP buffer) protein A agarose beads are added to each IP reaction and continue the Incubation for another 2 hours at 4C. […]

[4] = system: T-47D human breast cancer cells; assay: T-47D human breast cancer cell proliferation assay (FIG. 4); format: cell-based
Description: The x-axis represents the hPRL-G129R concentration either in the absence (open bars) or presence of 4-OH-Tamoxifen. Each data point represents a mean of at least three independent experiments with triplicate wells.

COc1ccc2c(c[n+](C)c3c4cc5c(cc4ccc23)OCO5)c1OC [chelerythrine, 1,2-dimethoxy-12-methyl[1,3]benzodioxolo[5,6-c]phenanthridinium]
IC50 [1]: 53 nM

B1: hPRL-G129R: human prolactin with substitution of Gly to Arg at position 129 (SEQ ID NO: 34), hPRLR antagonist (protein)
chain: LPICPGGAARCQVTLRDLFDRAVVLSHYIHNLSSEMFSEFDKRYTHGRGFITKAINSCHTSSLATPEDKEQAQQMNQKDFLSLIVSILRSWNEPLYHLVTEVRGMQEAPEAILSKAVEIEEQTKRLLEGMELIVSQVHPETKENEIYPVWSGLPSLQMADEESRLSAYYNLLHCLRRDSHKIDNYLKLLKCRIIHNNNC
effect on T-47D cells, co-culture method [2]: dose-response inhibitory effects | block of signal transduction (STAT5 phosphorylation) induced by hPRL [3]: able to block the signal transduction induced by hPRL | effect on T-47D cell proliferation ([4]; hPRL-G129R alone, dose-response): dose-response inhibitory effects | effect on T-47D cell proliferation in combination ([4]; in presence of 4-OH-Tamoxifen): additive effects with 4-OH-Tamoxifen

B2: hPRL: human prolactin (protein)
chain: LPICPGGAARCQVTLRDLFDRAVVLSHYIHNLSSEMFSEFDKRYTHGRGFITKAINSCHTSSLATPEDKEQAQQMNQKDFLSLIVSILRSWNEPLYHLVTEVRGMQEAPEAILSKAVEIEEQTKRLLEGMELIVSQVHPETKENEIYPVWSGLPSLQMADEESRLSAYYNLLHCLRRDSHKIDNYLKLLKCRIIHNNNC
effect on T-47D cells, co-culture method [2]: stimulatory effects
